According to patent publication US20240139289A1 (EXTEND BIOSCIENCES, published 2024):
One block for each binder: values may come before it. Ends that are not written are not given here.

How the values were obtained:
[1] = target: T1, human parathyroid hormone receptor 1 (PTHR1) (human, UniProt Q03431 27-593); assay: cell-based or functional assay
T1 sequence (looked up): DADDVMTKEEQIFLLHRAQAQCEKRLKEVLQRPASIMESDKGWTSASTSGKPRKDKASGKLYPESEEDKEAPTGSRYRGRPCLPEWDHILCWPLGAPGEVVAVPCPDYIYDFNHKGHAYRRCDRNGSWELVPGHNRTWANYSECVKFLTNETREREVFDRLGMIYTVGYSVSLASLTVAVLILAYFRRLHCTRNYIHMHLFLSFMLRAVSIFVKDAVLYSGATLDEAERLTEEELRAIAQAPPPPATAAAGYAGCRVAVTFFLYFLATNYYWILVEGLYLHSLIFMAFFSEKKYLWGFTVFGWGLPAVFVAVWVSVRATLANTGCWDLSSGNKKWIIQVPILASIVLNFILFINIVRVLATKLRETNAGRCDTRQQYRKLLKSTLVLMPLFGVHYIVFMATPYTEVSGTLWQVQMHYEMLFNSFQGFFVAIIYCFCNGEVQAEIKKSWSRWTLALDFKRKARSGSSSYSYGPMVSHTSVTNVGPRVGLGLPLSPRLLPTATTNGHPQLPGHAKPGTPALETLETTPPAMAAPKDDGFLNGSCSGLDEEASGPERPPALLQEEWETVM

[2] = target: T2, Vitamin D binding protein (DBP) (Homo sapiens (Human)) (UniProt P02774); assay: BLI (Octet Red96), biotinylated EXT607 on streptavidin tips, DBP 0-75 µM, steady-state fit
T2 sequence: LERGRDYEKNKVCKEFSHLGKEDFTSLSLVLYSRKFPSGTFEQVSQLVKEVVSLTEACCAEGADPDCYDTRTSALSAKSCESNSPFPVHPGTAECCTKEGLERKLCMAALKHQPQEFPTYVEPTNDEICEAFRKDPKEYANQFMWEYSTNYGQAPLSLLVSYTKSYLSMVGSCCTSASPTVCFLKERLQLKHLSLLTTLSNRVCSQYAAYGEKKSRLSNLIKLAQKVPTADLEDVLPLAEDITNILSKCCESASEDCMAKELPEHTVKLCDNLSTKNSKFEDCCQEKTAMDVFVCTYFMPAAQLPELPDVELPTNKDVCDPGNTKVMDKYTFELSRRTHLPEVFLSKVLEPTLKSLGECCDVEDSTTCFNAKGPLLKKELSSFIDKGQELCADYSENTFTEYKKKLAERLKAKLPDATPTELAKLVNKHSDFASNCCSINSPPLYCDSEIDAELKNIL

[3] = target: T2, Vitamin D binding protein (DBP) (Homo sapiens (Human)); assay: BLI (Octet Red96), biotinylated EXT607 on streptavidin tips, DBP 0-75 µM
[4] = target: T1, human parathyroid hormone receptor 1 …; assay: cell-based or functional assay; remark: listed apart in the source
[5] = target: T2, Vitamin D binding protein (DBP) (Homo sapiens (Human)); assay: BLI (Octet Red96), biotinylated EXT608 on streptavidin tips, DBP 0-75 µM, steady-state fit
[6] = target: T2, Vitamin D binding protein (DBP) (Homo sapiens (Human)); assay: BLI (Octet Red96), biotinylated EXT608 on streptavidin tips, DBP 0-75 µM

B3: EXT616 (PTH-PEG10 kDa-VitD) (peptide)
peptide: SVSEIQLMHNLGKHLNSMERVEWLRKKLQDVHNFC
modifications: C-terminal Cys thiol conjugated through maleimide-PEG ~10,000 Da (~227 units) to VitD-NH2 (25-hydroxy vitamin D, C3 position); C-terminal amide
PTHR1 EC50, calcium mobilization assay in agonist mode [4]: 33.6 nM

B4: EXT617 (PTH-PEG20 kDa-VitD) (peptide)
peptide: SVSEIQLMHNLGKHLNSMERVEWLRKKLQDVHNFC
modifications: C-terminal Cys thiol conjugated through maleimide-PEG ~20,000 Da (~455 units) to VitD-NH2 (25-hydroxy vitamin D, C3 position); C-terminal amide
PTHR1 EC50, calcium mobilization assay in agonist mode [4]: 221 nM | fold increase of PTHR1 EC50 against the conjugates with shorter PEG linkers [1]: ~7 fold

Binder: SVSEIQLMHNLGKHLNSMERVEWLRKKLQDVHNFC-NH2 (not fully specified (residue 35); also: acetate salt) [EXT615 (PTH-PEG5 kDa-VitD)]
PTHR1 EC50, calcium mobilization assay in agonist mode [4]: 29.9 nM

Binder: SVSEIQLMHNLGKHLNSMERVEWLRKKLQDVHNFC-NH2 (not fully specified (residue 35); also: acetate salt) [EXT611 (PTH-cys-PEG12-VitD)]
PTHR1 EC50, calcium mobilization assay in agonist mode [4]: 32.3 nM

More lines, now with the values ahead:

EC50, cell-based calcium flux assay in agonist mode (percent efficacy) [1]: 21 nM | Kd [2]: 8100 nM | maximum response (BLI shift) [3]: 1.79 nm
B1: EXT607 (PTH(1-34)-Cys-PEG36-25-hydroxy-vitamin D conjugate, C-terminal acid, R = OH) (peptide)
peptide: SVSEIQLMHNLGKHLNSMERVEWLRKKLQDVHNFC
modifications: C-terminal Cys (position 35) carries succinimido-propionylamino-PEG36-propionyl-aminopropyl-25-hydroxy-Vitamin D on its thiol; C-terminus is free acid (-OH)

PTHR1 EC50, calcium mobilization assay in agonist mode [4]: 28.6 nM | EC50, cell-based calcium flux assay in agonist mode (percent efficacy) [1]: 22 nM | Kd [5]: 5200 nM | maximum response (BLI shift) [6]: 1.79 nm
B2: EXT608 (PTH(1-34)-Cys-PEG36-25-hydroxy-vitamin D conjugate, C-terminal amide, R = NH2) (peptide)
peptide: SVSEIQLMHNLGKHLNSMERVEWLRKKLQDVHNFC
modifications: C-terminal Cys (position 35) carries succinimido-propionylamino-PEG36-propionyl-aminopropyl-25-hydroxy-Vitamin D on its thiol; C-terminal amide (-NH2)

PTHR1 EC50, calcium mobilization assay in agonist mode [4]: 30.5 nM
Binder: SVSEIQLMHNLGKHLNSMERVEWLRKKLQDVHNFC-NH2 (not fully specified (residue 35); also: acetate salt) [EXT606 (PTH-cys-PEG24-VitD)]
